Results on 1 molecule are retold here after patent US20140044644A1 (UNIVERSITY OF ZURICH, published 2014).

Assay [1] deals with T1, Aβ40 (synthetic, fibrillar) (UniProt P05067 672-711).
T1 construct: domain: Aβ40; also called fibrillar Aβ40; Aβ40 peptide
Put plainly: ELISA, Aβ40 coated, rat recombinant ankG in solution. In general terms: ELISA stands for enzyme-linked immunosorbent assay.

The target of assay [2] is T2, Aβ42 (synthetic, fibrillar) (UniProt P05067 672-713).
T2 construct: domain: Aβ42; also called fibrillar Aβ42; Aβ42 peptide
Put plainly: ELISA, Aβ42 coated, rat recombinant ankG in solution.

T2 sequence (P05067 672-713 limits assumed): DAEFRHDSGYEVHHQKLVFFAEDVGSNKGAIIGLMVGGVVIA
T1 sequence (P05067 672-711 limits assumed): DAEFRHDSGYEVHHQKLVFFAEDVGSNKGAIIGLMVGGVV

B1: rat recombinant ankG (ankyrin G) (other, UniProt O70511-3 1-1806, looked up)
chain: MSEEAKEKTAKPAHRKRKGKKSDANASYLRAARAGHLEKALDYIKNGVDVNICNQNGLNALHLASKEGHVEVVSELLQREANVDAATKKGNTALHIASLAGQAEVVKVLVTNGANVNAQSQNGFTPLYMAAQENHLEVVRFLLDNGASQSLATEDGFTPLAVALQQGHDQVVSLLLENDTKGKVRLPALHIAARKDDTKAAALLLQNDTNADIESKSGFTPLHIAAHYGNINVATLLLNRAAAVDFTARNDITPLHVASKRGNANMVKLLLDRGAKIDAKTRDGLTPLHCGARSGHEQVVEMLLDRAAPILSKTKNGLSPLHMATQGDHLNCVQLLLQHNVPVDDVTNDYLTALHVAAHCGHYKVAKVLLDKKANPNAKALNGFTPLHIACKKNRIRVMELLLKHGASIQAVTESGLTPIHVAAFMGHVNIVSQLMHHGASPNTTNVRGETALHMAARSGQAEVVRYLVQDGAQVEAKAKDDQTPLHISARLGKADIVQQLLQQGASPNAATTSGYTPLHLSAREGHEDVAAFLLDHGASLSITTKKGFTPLHVAAKYGKLEVASLLLQKSASPDAAGKSGLTPLHVAAHYDNQKVALLLLDQGASPHAAAKNGYTPLHIAAKKNQMDIATSLLEYGADANAVTRQGIASVHLAAQEGHVDMVSLLLSRNANVNLSNKSGLTPLHLAAQEDRVNVAEVLVNQGAHVDAQTKMGYTPLHVGCHYGNIKIVNFLLQHSAKVNAKTKNGYTPLHQAAQQGHTHIINVLLQNNASPNELTVNGNTALAIARRLGYISVVDTLKVVTEEIMTTTTITEKHKMNVPETMNEVLDMSDDEGEDAITGDTDKYLGPQDLKELGDDSLPAEGYVGFSLGARSASPKISSDRSYTLNRSSYARDSMMIEELLVPSKEQHLPFTREFDSDSLRHYSWAADTLDNVNLVSSPVHSGFLVSFMVDARGGSMRGSRHHGMRIIIPPRKCTAPTRITCRLVKRHKLANPPPMVEGEGLASRLVEMGPAGAQFLGPVIVEIPHFGSMRGKERELIVLRSENGETWKEHQFDSKNEDLSELLNGMDEELDSPEELGTKRICRIITKDFPQYFAVVSRIKQESNQIGPEGGILSSTTVPLVQASFPEGALTKRIRVGLQAQPVPEETVKKILGNKATFSPIVTVEPRRRKFHKPITMTIPVPPPSGEGVSNGYKGDTTPSLRLLCSITGGTSPAQWEDITGTTPLTFIKDCVSFTTNVSARFWLADCHQVLETVGLASQLYRELICVPYMAKFVVFAKTNDPVESSLRCFCMTDDRVDKTLEQQENFEEVARSKDIEVLEGKPIYVDCYGNLAPLTKGGQQLVFNFYSFKENRLPFSIKVRDTSQEPCGRLSFLKEPKTTKGLPQTAVCNLNITLPAHKKAEKADRRQSFTSLALRPQSPCERTDIRMAIVADHLGLSWTELARELNFSVDEINQIRVENPNSLISQSFMLLKKWVTRDGKNATTDALTSVLTKINRIDIVTLLEGPIFDYGNISGTRSFADENNVFHDPVDGWQNETPSGSLESPAQARRITGGLLDRLDDSSDQVRDPITSYLTGEAGKFEANGNHAEVIPEAKAKAYFPESQNDIGKQSIKENLKPKTHGCGRAEEPVSPLTAYQKSLEETSKLVIEDAPKPCVPVGMKKMTRTPADGKARLNLQEEEGSARSEPKQVKSPGEAFTRMTACCYKDLRHSESDSSSEEERRVTTRVIRRRVIIKGEEAKTIPGESVTEEQFTDEEGNLITRKITRKVIRRIGPQERKQDDVQGEGYKVKTKKEIRNVEKKAH
notes: An immunoreactive band of about 190 kDa is reported; also called purified ankG; recombinant ankG protein
With B1, the binding result in assay [1] and in assay [2] was “no binding (tested: ankG 0-2.5 µg/ml)” each time.
